Reference: publication PMC11084668, “EGCG Disrupts the LIN28B/Let-7 Interaction and Reduces Neuroblastoma Aggressiveness”

T1: rLIN28B (LIN28B-Myc-His) (Homo sapiens, UniProt Q6ZN17 1-250)
T1 sequence: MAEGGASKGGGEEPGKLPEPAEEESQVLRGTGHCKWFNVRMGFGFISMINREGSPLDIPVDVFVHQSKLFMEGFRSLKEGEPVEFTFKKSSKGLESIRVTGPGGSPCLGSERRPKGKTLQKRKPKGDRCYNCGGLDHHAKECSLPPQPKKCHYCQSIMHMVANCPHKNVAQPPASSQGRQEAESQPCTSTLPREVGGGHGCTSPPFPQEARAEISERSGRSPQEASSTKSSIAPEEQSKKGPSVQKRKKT


Columns and labels:
rLIN28B (LIN28B-Myc-His) [1] = molecular target: T1, rLIN28B (LIN28B-Myc-His); experiment: AlphaScreen; REMSA: 20 mM HEPES pH 7.5, 50 mM KCl, 0.5 ug BSA, 0.25% glycerol, room temperature, 1 h; AlphaScreen: dialysis buffer (Table S3, partly shown: 0.02% Tween, 0.1% BSA, 15% glycerol, pH 7.5?), room temperature, 90 min; conditions: protein: recombinant; tags: C-terminal Myc-His; label: 5'-biotin
rLIN28B (LIN28B-Myc-His) [2] = molecular target: T1, rLIN28B (LIN28B-Myc-His); experiment: AlphaScreen saturation binding; apparent Kd; n = 3, SD; REMSA: 20 mM HEPES pH 7.5, 50 mM KCl, 0.5 ug BSA, 0.25% glycerol, room temperature, 1 h; AlphaScreen: dialysis buffer (Table S3, partly shown: 0.02% Tween, 0.1% BSA, 15% glycerol, pH 7.5?), room temperature, 90 min; conditions: protein: recombinant; tags: C-terminal Myc-His; label: 5'-biotin

Row | Binder | binding result (rLIN28B (LIN28B-Myc-His) [1]) | Kd (rLIN28B (LIN28B-Myc-His) [2])
1 | GGCAUGAUACCACCCGGUACGGGC (structured_RNA) [Bi-pre-let-7g-mut] | no binding | 
2 | GCUAUGAUACCACCCGGUACAGGAGC (structured_RNA) [Bi-pre-let-7g] |  | 34.7 ± 3.6 nM
